According to the supplement of paper PMC10126150:
± gives the standard deviation of the averaged measurements.

Tested on: ATP
Experiment: switch fluorescence ratio, 500 uM ATP over buffer (Cy3 cluster intensity, sum of 5 cycles each) (fold (ratio)); higher = stronger signal-on switching upon ATP binding; sequences stand for … in TCGTCGGCAGCGTCAGATGTGTATAAGAGACAGTTTTTTTTTTTTTTTTTTTTTTTTT…TC
Conditions: aptamer strand: ATP DNA aptamer (quencher-CACCTGGGGGAGTATTGCGGAGGAAGG + anchor), 100 nM annealed; ATP concentration: 500 uM
Procedure, shortened: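 Clusters carrying Cy3-labelled switching strands on a modified Illumina MiSeq flow-cell were annealed to 100 nM quencher-labelled ATP aptamer and imaged in selection buffer. They were imaged again after 15 min with 500 uM ATP at 22 °C, over five buffer/ATP cycles with NaOH stripping and re-annealing in between. For each cluster, the fluorescence ratio is the summed Cy3 intensity of the target cycles divided by that of the buffer cycles, averaged per switch-domain sequence. Clusters outside 100-1000 RFU were left out.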
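Further: ATP exposure 15 min at 22 °C before imaging.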

Sequence	switch fluorescence ratio
CATGATAGCG	0.9981 ± 0.0019
AGTTTCCTGC	1.01 ± 0.015
GGTGAACTTT	0.964 ± 0.015
CAATTTAATG	0.999 ± 0.019
TGTCGGGGTA	0.995 ± 0.016
GTCTAATAGT	1.03 ± 0.015
GTTTTTGTGT	0.987 ± 0.025
GGTTCAGCTT	0.981 ± 0.013
TGGAAAATTC	1.019 ± 0.0078
GTTGTATTAG	0.988 ± 0.025
GTTGGGGGTT	1.01 ± 0.042
TGACTATGAT	0.998 ± 0.015
GAGTTTAGGA	0.969 ± 0.034
TTTTAATTTC	0.955 ± 0.14
TTTCTGACGT	1.09 ± 0.057
GGGGAGTTAC	1.35 ± 0.44
TTATCTAGGA	1 ± 0.028
TTAACGCGGA	1.03 ± 0.011
TGGGCCCATT	1.02 ± 0.076
GTGGTTTAAC	1.04 ± 0.0087
AGTGTTGTTG	0.9727 ± 0.0095
AATTTGGGGC	0.982 ± 0.022
GCTTGCAGTG	0.995 ± 0.033
AGCGGATCGG	0.991 ± 0.02
GGCGTTGTCC	1.02 ± 0.044
TCCTTTGGTC	0.987 ± 0.022

Sequence	switch fluorescence ratio
AGGGAGGCCG	0.98 ± 0.11
TTGTTGGTTG	0.975 ± 0.034
GGTTGGTGGT	1.028 ± 0.0064
GAGGGGTCCG	1 ± 0.11
GCTTAATGT	1 ± 0.083
CCATATAGTT	0.986 ± 0.03
CCGGGCGGAT	1.02 ± 0.0099
TCATTGGACT	0.98 ± 0.023
AGTGGAAAC	1.0032 ± 0.00099
TCTGGGTTAT	0.988 ± 0.033
TTGGTAGAAT	1.01 ± 0.014
AATTGTCGCG	1.01 ± 0.012
GAGTTTTTGG	0.973 ± 0.015
CGTAAGGGGA	1.05 ± 0.064
TCGGAATTTT	1.03 ± 0.026
GCCTTGATCT	0.996 ± 0.016
AGTGGTGGAG	1 ± 0.04
CATACTTCAT	1.049 ± 0.0063
TAAGGGGGG	1.01 ± 0.029
CGCGGGTATG	1.05 ± 0.026
CGCGTCTCCC	3.58 ± 0.38
GATCTGGGGC	1.06 ± 0.036
AATTCCGGGA	1.05 ± 0.068
AAGCCAGGGG	1.46 ± 0.0077
CGGGGAGTGG	0.973 ± 0.032
AAAAAGCTCG	0.985 ± 0.064

Sequence	switch fluorescence ratio
AGATTGGTTC	0.9953 ± 0.0044
TGGTCTTCCA	1.04 ± 0.013
TGGTGGCGGT	1.01 ± 0.075
GCACCACCGT	1.15 ± 0.014
CAGTGTCTGA	1.05 ± 0.037
GTAATTAGAT	0.969 ± 0.022
GAGTAAAATT	1.13 ± 0.18
CGGTTTTGAG	1.01 ± 0.034
CGGGGAGATC	1.03 ± 0.062
TGGTAGTGAC	1.03 ± 0.064
GAGGTTAAAT	0.992 ± 0.034
TGAAGCCAGT	1 ± 0.024
TCGTGGCATA	1.11 ± 0.044
AGGAACATTA	1.01 ± 0.054
TGGACGAATA	1.39 ± 0.29
AGTGGGGACG	1.031 ± 0.01
CTCGCCGGGG	1.06 ± 0.013
GGGGTGGTGG	0.9888 ± 0.007
TCACATTATT	1.04 ± 0.02
GGATATAATG	0.985 ± 0.019
CTTTATGTCT	1 ± 0.033
TAGTGGGGGG	0.989 ± 0.026
TTGAGTGGGC	0.979 ± 0.031
CATTTGATTG	0.988 ± 0.013
ATAAGCAGGA	1.02 ± 0.017
